Reference: patent publication US20080206254A1 (LIFE SCIENCES RESEARCH PARTNERS VZW, published 2008)
Positions count from the first letter of the chain named.

How the values were obtained:
[1] = molecular target: human Factor VIII (FVIII) (human) (UniProt P00451); experiment: cell-based or functional assay
[2] = molecular target: human Factor VIII (FVIII) (human) (UniProt P00451); experiment: SPR (BIAcore), BOIIB2 immobilised on a CM5 chip, FVIII in HBS as analyte
[3] = molecular target: T1, A2 domain residues 379-546 of FVIII with mutation R484A (human, UniProt P00451 398-565, 35S-methionine labelled); experiment: immunoprecipitation of 35S-labelled polypeptide on BOIIB2-Protein A Sepharose
T1 construct: the text lists R484A; Y487A; not shown: cmyc (9E10) tag
T1 sequence: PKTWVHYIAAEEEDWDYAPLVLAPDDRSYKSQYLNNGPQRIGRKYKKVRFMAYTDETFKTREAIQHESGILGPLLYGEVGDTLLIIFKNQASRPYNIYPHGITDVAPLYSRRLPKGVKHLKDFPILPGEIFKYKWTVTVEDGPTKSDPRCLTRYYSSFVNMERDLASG
Protocol: (§1) For fragments of FVIII of less than 15 amino acids a tag sequence was added including ubiquitin and/or T7 for recognition by specific anti-tag antibodies, together with a complementary sequence of cysteines for S labeling. Polypeptide encoding FVIII fragments were produced in TNT coupled Reticulocyte Lysate Systems (Promega) according to manufacturer's instructions. Immunoprecipitation of transcribed genes was carried out as follows. Dilutions of samples containing specific antibodies were mixed to 40 μl of protein A Sepharose (Pharmacia) in 500 μl of an appropriate buffer and the mixture gently rocked for 1 hour at 4° C. Unbound antibodies are eliminated by a series of centrifugation and washings. The complex of antibody-protein A Sepharose is resuspended in 300 μl of buffer supplemented by 3 μl of in-vitro L-(³⁵S) methionine-labeled FVIII polypeptides for an incubation at 4° C. for 2 hours. Bound antigen/antibody complexes are eluted from the beads by boiling for 3 minutes in 30 μl of denaturing sample buffer and the radioactivity counted. A second aliquot is analyzed by SDS-PAGE and visualized by autoradiography. […] This system includes a combined transcription-translation provided by rabbit reticulocytes. […] Polypeptides are radiolabeled by addition of ³⁵S-methionine in the reaction mixture. BOIIB2 antibody is incubated with a Protein-A Sepharose, washed and resuspended before addition of one of the radiolabeled polypeptides. The suspension is incubated for 90 minutes at room temperature, washed and the labeled polypeptide eluted from Sepharose beads by addition of a sodium-dodecylsulfate containing buffer.

[4] = molecular target: T2, A2 domain residues 379-546 of FVIII with mutation Y487A (human, UniProt P00451 398-565, 35S-methionine labelled); experiment: as above
T2 construct: Read as one of four single mutants; see the note of m4; not shown: cmyc (9E10) tag
T2 sequence: T1 sequence with A106R, Y109A
Protocol: as §1

[5] = molecular target: T3, A2 domain residues 379-546 of FVIII with mutation R489A (human, UniProt P00451 398-565, 35S-methionine labelled); experiment: as above
T3 construct: Read as one of four single mutants; see the note of m4; not shown: cmyc (9E10) tag
T3 sequence: T1 sequence with A106R, R111A
Protocol: as §1

[6] = molecular target: T4, A2 domain residues 379-546 of FVIII with mutation P492A (human, UniProt P00451 398-565, 35S-methionine labelled); experiment: as above
T4 construct: Read as one of four single mutants; see the note of m4; not shown: cmyc (9E10) tag
T4 sequence: T1 sequence with A106R, P114A
Protocol: as §1

Chain of human Factor VIII (FVIII) (human) (P00451 20-2351): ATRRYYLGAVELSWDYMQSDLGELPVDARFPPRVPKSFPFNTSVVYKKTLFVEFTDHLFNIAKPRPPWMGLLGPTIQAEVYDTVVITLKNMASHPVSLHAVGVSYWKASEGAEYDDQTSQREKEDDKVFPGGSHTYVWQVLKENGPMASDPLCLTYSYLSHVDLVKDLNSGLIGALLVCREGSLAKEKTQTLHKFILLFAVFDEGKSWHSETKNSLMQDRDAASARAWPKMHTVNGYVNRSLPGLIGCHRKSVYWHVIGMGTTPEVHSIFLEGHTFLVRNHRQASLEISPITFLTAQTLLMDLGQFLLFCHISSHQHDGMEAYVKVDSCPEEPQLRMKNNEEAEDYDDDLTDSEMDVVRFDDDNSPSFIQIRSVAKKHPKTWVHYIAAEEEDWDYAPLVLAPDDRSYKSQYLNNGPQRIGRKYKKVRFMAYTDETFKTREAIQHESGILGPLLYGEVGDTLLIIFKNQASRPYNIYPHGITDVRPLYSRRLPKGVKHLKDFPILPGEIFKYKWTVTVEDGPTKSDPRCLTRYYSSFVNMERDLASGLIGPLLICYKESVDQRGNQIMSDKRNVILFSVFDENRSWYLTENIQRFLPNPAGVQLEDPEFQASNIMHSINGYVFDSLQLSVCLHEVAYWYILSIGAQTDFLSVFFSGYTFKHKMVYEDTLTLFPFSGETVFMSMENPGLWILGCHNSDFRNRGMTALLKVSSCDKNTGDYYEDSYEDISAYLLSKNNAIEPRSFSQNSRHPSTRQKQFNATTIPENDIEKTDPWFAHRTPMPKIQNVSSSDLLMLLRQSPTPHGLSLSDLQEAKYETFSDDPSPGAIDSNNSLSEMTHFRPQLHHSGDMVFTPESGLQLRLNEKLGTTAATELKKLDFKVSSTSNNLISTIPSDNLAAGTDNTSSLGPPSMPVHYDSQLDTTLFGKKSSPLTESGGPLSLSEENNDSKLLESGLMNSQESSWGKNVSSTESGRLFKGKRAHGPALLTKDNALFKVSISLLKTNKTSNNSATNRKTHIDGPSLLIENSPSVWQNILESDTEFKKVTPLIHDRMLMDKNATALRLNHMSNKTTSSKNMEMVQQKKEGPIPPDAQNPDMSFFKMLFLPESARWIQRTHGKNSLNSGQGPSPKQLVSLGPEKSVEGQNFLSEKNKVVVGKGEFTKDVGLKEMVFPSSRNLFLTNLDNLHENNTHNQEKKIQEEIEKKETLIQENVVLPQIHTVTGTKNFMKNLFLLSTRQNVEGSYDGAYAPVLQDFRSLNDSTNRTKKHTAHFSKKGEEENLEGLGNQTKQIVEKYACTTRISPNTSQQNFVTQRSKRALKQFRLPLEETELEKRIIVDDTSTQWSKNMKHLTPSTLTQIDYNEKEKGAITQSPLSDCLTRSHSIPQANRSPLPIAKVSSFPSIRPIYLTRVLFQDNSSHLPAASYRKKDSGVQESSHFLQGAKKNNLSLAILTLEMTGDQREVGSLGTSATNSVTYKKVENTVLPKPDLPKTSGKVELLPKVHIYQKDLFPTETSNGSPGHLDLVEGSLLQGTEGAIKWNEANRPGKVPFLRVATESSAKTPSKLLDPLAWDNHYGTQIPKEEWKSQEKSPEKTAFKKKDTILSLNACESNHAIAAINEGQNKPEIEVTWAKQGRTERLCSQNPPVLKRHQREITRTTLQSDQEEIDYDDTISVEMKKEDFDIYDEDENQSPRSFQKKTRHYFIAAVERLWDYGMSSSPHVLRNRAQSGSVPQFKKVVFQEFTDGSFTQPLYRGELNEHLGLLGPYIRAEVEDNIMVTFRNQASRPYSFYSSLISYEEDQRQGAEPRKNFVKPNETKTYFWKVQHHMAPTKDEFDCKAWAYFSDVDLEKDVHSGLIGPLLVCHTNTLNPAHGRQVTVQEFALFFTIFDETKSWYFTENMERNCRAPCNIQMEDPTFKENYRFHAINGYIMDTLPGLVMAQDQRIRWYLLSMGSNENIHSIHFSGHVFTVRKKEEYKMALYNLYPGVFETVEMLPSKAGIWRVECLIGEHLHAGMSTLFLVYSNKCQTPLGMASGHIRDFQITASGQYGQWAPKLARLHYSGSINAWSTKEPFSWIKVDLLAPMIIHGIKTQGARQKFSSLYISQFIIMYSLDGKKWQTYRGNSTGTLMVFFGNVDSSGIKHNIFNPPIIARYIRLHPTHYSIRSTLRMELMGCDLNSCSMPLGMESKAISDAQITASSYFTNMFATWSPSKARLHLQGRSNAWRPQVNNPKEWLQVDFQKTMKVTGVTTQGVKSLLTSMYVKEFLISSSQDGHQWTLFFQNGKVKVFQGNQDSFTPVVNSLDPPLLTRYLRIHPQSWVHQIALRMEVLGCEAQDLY

Percentage of inhibition of FVIII in a chromogenic assay (thrombin-activated FVIII as cofactor of factor IXa in the conversion of factor X to factor Xa) [1]: 99%
koff [2]: 1e-08 s⁻¹
binding result [3]: no binding
binding result [4]: no binding
binding result [5]: no binding
binding result [6]: no binding
B1: human monoclonal antibody BOIIB2, produced by the cell line deposited under accession number LMBP 6422CB at the BCCM (antibody, V domains shown)
VH: QVQLQESGPGLVKPSETLSLTCTVSGDSISDYYWSWIRQPPGKGLEWIGYFFYSGGSNYNPSLKSRVTMSVDTSKNQFSLKLGSVTAADTAVYYCARSQLRYYLDVWGQGTTVTVSS
VL: EIVLTQSPGTLSLSPGERATLSCRASQSVDSNYLAWYQQKPGQAPRVVIYGASNRATGIPDRFSGSGSGTEFTLTISRLDPEDFAVYYCQQYGSFFGQGTRLEIK
notes: VH4 (DP-71)/JH6c, VkappaIII/Jkappa5; also called BIIIB2
